Data published in publication PMC4007472, “Evidence for Steric Regulation of Fibrinogen Binding to Staphylococcus aureus Fibronectin-binding Protein A (FnBPA)*” (The Journal of Biological Chemistry, 2014).

T1: Intact human plasma fibrinogen (Fg) (human, UniProt P02671-2 20-644; P02675 31-491; P02679-2 27-437)
T1 construct: Fibrinogen Aα chain, human, from plasma; Fibrinogen Bβ chain, human, from plasma; Fibrinogen γ chain, human, from plasma; 341 kDa dimer of heterotrimers Aα, Bβ, γ; source: bought: Calbiochem-Merck-Millipore (human plasma, product no. 341576); in human plasma for the pulldown; copies: 2 + 2 + 2
T1 sequence (looked up) 1: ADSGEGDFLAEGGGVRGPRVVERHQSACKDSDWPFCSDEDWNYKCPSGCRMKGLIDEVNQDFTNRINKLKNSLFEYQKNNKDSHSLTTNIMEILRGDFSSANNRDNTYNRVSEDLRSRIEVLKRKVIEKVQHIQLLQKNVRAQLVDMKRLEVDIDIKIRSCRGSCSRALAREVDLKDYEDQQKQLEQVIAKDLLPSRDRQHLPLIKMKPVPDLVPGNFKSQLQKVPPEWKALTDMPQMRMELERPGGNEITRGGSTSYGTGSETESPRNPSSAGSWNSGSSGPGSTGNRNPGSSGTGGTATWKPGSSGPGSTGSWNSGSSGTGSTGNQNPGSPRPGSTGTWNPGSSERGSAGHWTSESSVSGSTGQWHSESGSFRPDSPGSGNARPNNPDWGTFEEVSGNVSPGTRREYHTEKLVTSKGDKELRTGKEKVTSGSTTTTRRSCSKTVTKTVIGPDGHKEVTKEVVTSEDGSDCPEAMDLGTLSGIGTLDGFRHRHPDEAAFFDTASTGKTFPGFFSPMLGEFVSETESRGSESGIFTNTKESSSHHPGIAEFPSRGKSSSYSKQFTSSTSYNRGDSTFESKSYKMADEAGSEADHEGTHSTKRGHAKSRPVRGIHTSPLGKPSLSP
T1 sequence (looked up) 2: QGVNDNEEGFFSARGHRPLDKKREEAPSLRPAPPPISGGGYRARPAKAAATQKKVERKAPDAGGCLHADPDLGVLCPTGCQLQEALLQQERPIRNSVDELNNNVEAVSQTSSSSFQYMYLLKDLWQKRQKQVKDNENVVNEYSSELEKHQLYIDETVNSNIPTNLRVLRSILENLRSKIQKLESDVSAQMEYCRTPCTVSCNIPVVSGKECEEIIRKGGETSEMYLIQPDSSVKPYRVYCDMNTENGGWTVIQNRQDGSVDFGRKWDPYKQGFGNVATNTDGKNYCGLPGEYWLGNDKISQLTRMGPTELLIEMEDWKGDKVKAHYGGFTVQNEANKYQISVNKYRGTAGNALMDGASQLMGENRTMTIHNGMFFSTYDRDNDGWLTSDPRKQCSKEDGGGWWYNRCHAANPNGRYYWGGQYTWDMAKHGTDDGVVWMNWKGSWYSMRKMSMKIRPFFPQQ
T1 sequence (looked up) 3: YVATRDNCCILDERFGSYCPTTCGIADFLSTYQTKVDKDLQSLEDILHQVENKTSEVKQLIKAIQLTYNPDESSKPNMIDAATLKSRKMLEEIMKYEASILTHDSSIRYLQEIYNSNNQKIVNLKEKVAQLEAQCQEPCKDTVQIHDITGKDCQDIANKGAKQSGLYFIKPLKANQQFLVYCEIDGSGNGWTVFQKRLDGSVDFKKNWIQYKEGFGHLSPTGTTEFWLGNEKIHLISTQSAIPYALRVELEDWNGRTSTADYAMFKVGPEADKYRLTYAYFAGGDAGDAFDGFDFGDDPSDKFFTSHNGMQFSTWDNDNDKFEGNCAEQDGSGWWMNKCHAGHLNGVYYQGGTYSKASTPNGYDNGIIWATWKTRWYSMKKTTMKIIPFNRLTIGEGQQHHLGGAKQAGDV

T2: rFnBPA(189–505) (S. aureus 8325-4, UniProt P14738 189-505)
T2 construct: Cloned in pET-YSBLIC-3C; also called N2N3 (without latch); not shown: His6, N-terminal, cleaved
T2 sequence: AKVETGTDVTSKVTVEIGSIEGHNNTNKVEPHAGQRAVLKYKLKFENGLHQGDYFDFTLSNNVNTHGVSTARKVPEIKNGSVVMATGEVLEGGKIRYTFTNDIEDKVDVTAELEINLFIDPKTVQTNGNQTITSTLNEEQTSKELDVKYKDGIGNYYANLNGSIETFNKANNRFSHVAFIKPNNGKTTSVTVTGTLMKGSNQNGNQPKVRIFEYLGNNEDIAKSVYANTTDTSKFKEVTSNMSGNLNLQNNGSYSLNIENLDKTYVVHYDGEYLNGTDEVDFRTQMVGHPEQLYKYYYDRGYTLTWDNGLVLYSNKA

T3: rFnBPA(189–511) (S. aureus 8325-4, UniProt P14738 189-511)
T3 construct: Cloned in pET-YSBLIC-3C; also called N2N3 domains including the latch strand; not shown: His6, N-terminal, cleaved
T3 sequence: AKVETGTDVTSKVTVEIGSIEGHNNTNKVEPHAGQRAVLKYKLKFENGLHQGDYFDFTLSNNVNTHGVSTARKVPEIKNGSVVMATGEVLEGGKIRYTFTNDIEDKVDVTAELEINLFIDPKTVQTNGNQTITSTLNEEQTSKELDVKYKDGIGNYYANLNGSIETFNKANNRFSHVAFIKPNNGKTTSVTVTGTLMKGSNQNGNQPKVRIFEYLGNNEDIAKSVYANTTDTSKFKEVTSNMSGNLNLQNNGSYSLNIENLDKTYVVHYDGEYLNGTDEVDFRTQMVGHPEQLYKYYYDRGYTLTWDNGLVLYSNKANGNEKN

B1: AF1 (rFnBPA(189–550)) (domain or fragment)
chain: AKVETGTDVTSKVTVEIGSIEGHNNTNKVEPHAGQRAVLKYKLKFENGLHQGDYFDFTLSNNVNTHGVSTARKVPEIKNGSVVMATGEVLEGGKIRYTFTNDIEDKVDVTAELEINLFIDPKTVQTNGNQTITSTLNEEQTSKELDVKYKDGIGNYYANLNGSIETFNKANNRFSHVAFIKPNNGKTTSVTVTGTLMKGSNQNGNQPKVRIFEYLGNNEDIAKSVYANTTDTSKFKEVTSNMSGNLNLQNNGSYSLNIENLDKTYVVHYDGEYLNGTDEVDFRTQMVGHPEQLYKYYYDRGYTLTWDNGLVLYSNKANGNEKNGPIIQNNKFEYKEDTIKETLTGQYDKNLVTTVEEEYDSS
notes: Cloned in pET-YSBLIC-3C; not shown: His6, N-terminal, cleaved
B2: FgγC (synthetic peptide, 17 C-terminal residues of the Fg γA chain) (peptide)
peptide: Ac-GEGQQHHLGGAKQAGDV-NH2
notes: Fibrinogen γA chain, human, the 17 C-terminal residues; also called Fg peptide; source: synthetic peptide (Severn Biotech Ltd.)
B3: NTD (30-kDa N-terminal proteolytic fragment of fibronectin) (domain or fragment)
chain: not shown
modifications: Limits not printed: conventional N-terminal 29-30 kDa fragment, mature residues 1-259 (1-5F1). N-terminal pyroglutamate, intradomain disulfides
B4: FgD (monomeric ~85-kDa proteolytic fragment of Fg) (domain or fragment)
chain 1: DNTYNRVSEDLRSRIEVLKRKVIEKVQHIQLLQKNVRAQLVDMKRLEVDIDIKIRSCRGSCSRALAREVDLKDYEDQQKQLEQVIAKDLLPSR
chain 2: DNENVVNEYSSELEKHQLYIDETVNSNIPTNLRVLRSILENLRSKIQKLESDVSAQMEYCRTPCTVSCNIPVVSGKECEEIIRKGGETSEMYLIQPDSSVKPYRVYCDMNTENGGWTVIQNRQDGSVDFGRKWDPYKQGFGNVATNTDGKNYCGLPGEYWLGNDKISQLTRMGPTELLIEMEDWKGDKVKAHYGGFTVQNEANKYQISVNKYRGTAGNALMDGASQLMGENRTMTIHNGMFFSTYDRDNDGWLTSDPRKQCSKEDGGGWWYNRCHAANPNGRYYWGGQYTWDMAKHGTDDGVVWMNWKGSWYSMRKMSMKIRPFFPQQ
chain 3: AIQLTYNPDESSKPNMIDAATLKSRKMLEEIMKYEASILTHDSSIRYLQEIYNSNNQKIVNLKEKVAQLEAQCQEPCKDTVQIHDITGKDCQDIANKGAKQSGLYFIKPLKANQQFLVYCEIDGSGNGWTVFQKRLDGSVDFKKNWIQYKEGFGHLSPTGTTEFWLGNEKIHLISTQSAIPYALRVELEDWNGRTSTADYAMFKVGPEADKYRLTYAYFAGGDAGDAFDGFDFGDDPSDKFFTSHNGMQFSTWDNDNDKFEGNCAEQDGSGWWMNKCHAGHLNGVYYQGGTYSKASTPNGYDNGIIWATWKTRWYSMKKTTMKIIPFNRLTIGEGQQHHLGGAKQAGDV
modifications: Limits not printed: conventional plasmin fragment D1 (mature Aalpha 105-197, Bbeta 134-461, gamma 63-411), ends may be ragged; gammaA C-terminus (AGDV) used because the UniProt canonical entry is …

Experiments:
Settings in all cases: both partners purified
[1] = target: B3; assay: ITC; MicroCal VP-ITC, PBS pH 7.4, 25 °C, single-site binding model; AF1 injected into NTD; AF1 with Fg
[2] = target: T1, Intact human plasma fibrinogen (Fg); assay: as above
[3] = target: Human plasma fibronectin (Fn) (human, Plasma form by convention: no EDB or EDA, disulfide-linked heterodimer of a V+ chain (V89 chosen) and a V0 chain; the real material is a splice mixture. N-terminal pyroglutamate, glycosylated); assay: SPR; AF1 immobilised by amine coupling, Fn (5.2–0.01 nM) or NTD as analyte; kinetic analysis, Langmuir 1:1 fit; 25 °C, HBS-P+
[4] = target: T2, rFnBPA(189–505); assay: crystal structure; rFnBPA(189–505) 25 mg/ml with a 20-fold molar excess of FgγC; 1.83 Å
[5] = target: B1; assay: SPR; NTD immobilised on a C1 chip; 0.5 μM AF1 + 0.5 μM Fg injected together, without or with 50 μM FgγC; 25 °C, HBS-P+
[6] = target: B1; assay: ITC; MicroCal VP-ITC, PBS pH 7.4, 25 °C, single-site binding model; AF1 injected into NTD; AF1 with Fg
[7] = target: B1; assay: SPR; AF1 immobilised by amine coupling, Fn (5.2–0.01 nM) or NTD as analyte; kinetic analysis, Langmuir 1:1 fit; 25 °C, HBS-P+
[8] = target: T2, rFnBPA(189–505); assay: SPR; FgD immobilised by amine coupling, rFnBPA constructs as analytes in 2-fold dilutions; equilibrium (steady-state) analysis; 25 °C, HBS-P+ (10 mM HEPES pH 7.4, 150 mM NaCl, 0.05% polysorbate 20)
[9] = target: T3, rFnBPA(189–511); assay: as above
[10] = target: B1; assay: as above

B1
dH [1]: -35.8 kcal/mol
stoichiometry N [1]: 0.89
Kd [2]: 1100 nM
dH [2]: -6.1 kcal/mol
stoichiometry N [2]: 2.11
Kd [3]: 0.359 nM

B2
binding result [4]: binds
binding result [5]: binds

B3
Kd [6]: 0.7 nM
Kd [7]: 0.393 nM

B4
Kd [8]: 3700 nM
Kd [9]: 1500 nM
Kd [10]: 1500 nM
